Measured values published in the supplement of paper PMC10567573.

B1: ZBED1 (parent)
chain: EQVFSLGDGVSGGFFGIRDSSFL
B2: CDKL4 (parent)
chain: AVKKFVESEDDPVVKKIALREIRM

Variants of: B1
Assay: protein stability index of a GFP-peptide fusion (GPS, HEK-293T) (PSI 1-6); higher = more stable
Details: c terminus: native
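Further: lentivirally expressed fusions sorted by FACS into six bins by GFP to DsRed ratio, PSI derived from sequencing read proportions per bin multiplied by bin number.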

Protein stability index of substitutions, site by site:
I17: R 4.2; D 4.55; S 4.2; G 4.17; E 4.71; Y 3.28; N 4.02; H 4.03; T 4.3; C 3.76; A 4.37; Q 4.31; M 3.75; K 3.8; L 3.68; P 4; W 3.52; V 3.87; F 3.42
G16: F 1.91; R 3.14; M 2.17; Y 2.29; L 2.8; A 2.62; N 3.46; C 1.84; T 2.77; E 2.83; V 1.85; W 1.76; H 3.56; K 3.29; D 3.77; S 2.05; I 1.57; P 2.85; Q 2.93
D19: S 1.68; V 2.65; M 1.77; A 1.3; H 2.19; C 2.26; F 3.4; Y 2.57; T 1.85; I 1.82; K 3.4; Q 2.15; P 2.15; G 2.87; E 2.92; N 2.75; R 2.78; L 2.1
S20: I 2.42; H 2.76; R 3.21; V 2.63; G 3.22; T 3.22; F 2.39; Y 2.96; P 3.73; L 2.5; A 3.1; Q 3.7; K 3.53; E 3.91; C 1.96; D 3.71; M 2.49; W 2.35; N 3.7
F14: H 4.24; W 3.44; G 4.44; D 4.16; T 4.12; P 4.08; A 3.82; Y 3.18; E 4.11; K 4.3; I 3.21; R 4; Q 4.45; V 3; M 3.74; N 4.62; L 3.67; C 4.21; S 3.71
S21: A 3; C 2.77; R 3.61; P 3.4; Q 3.48; F 2.61; E 3.67; T 3.33; D 4.08; M 2.54; V 1.74; I 2.25; N 3.62; H 3.46; K 4.02; Y 2.66; G 3.84; L 2.5; W 2.59
R18: N 3.9; L 2.78; V 2.14; C 1.98; D 3.98; P 3.28; Y 2.49; G 3.42; A 2.92; W 2.21; H 2.62; E 3.93; K 3.96; Q 3.38; M 2.71; S 3.65; T 3.32; I 2.26; F 2.07
L23: Y 2.61; T 3.33; E 4.54; W 2.66; N 3.94; P 3.92; V 3.19; C 3.34; D 3.96; R 3.35; Q 3.98; G 1.56; H 3.9; M 3.67; A 2.42; I 2.99; S 3.25; K 4.35; F 2.63
F22: L 3.41; D 4.06; I 3.04; S 3.79; T 4.07; V 3.35; A 4.15; C 3.39; R 3.61; G 4.14; Y 3.33; Q 4.24; W 3.73; P 3.43; M 3.49; E 4.08; H 4.5; K 2.39; N 4.22
F15: S 4.43; P 4.25; I 3.67; Q 4.63; R 4.13; A 4.32; L 3.7; D 4.15; G 3.85; M 3.82; W 2.88; V 3.65; K 4.1; N 4.21; C 3.64; Y 3.52; T 4.08; E 3.78; H 4.11
G13: Y 2.04; M 2.2; P 3.49; V 2.22; N 3.58; L 2.23; S 3.49; R 2.96; T 3.17; W 1.82; Q 3.48

Variants of: B2
Assay: as above
Details: c terminus: a fixed tail appended

Protein stability index, by site and new letter:
K3: Q 3.04; F 1.76; T 2.86; N 3.45; L 2.34; A 2.83; S 3.23; P 3.02; R 3.39; H 3.6; E 3.72; G 2.74; V 1.95; Y 2.28; D 3.23; I 1.91; W 2.35; M 2.28; C 2.66
E7: F 1.94; R 2.52; K 2.61; M 2.43; Q 2.54; G 1.99; Y 2.32; V 2.54; T 2.52; A 2.99; I 2; D 2.71; C 2.36; P 2.97; S 3.04; L 1.97; N 3.19; W 2.14; H 2.18
A1: V 2.43; P 3.17; W 2.72; Q 3.3; I 2.16; R 2.45; C 2.48; G 3.63; D 3.75; L 1.99; E 3.85; H 2.59; Y 2.2; F 2.21; S 3.94; K 2.91; T 3.1; N 3.38; M 2.69
S8: A 2.92
V6: E 3.72; Q 3.42; M 3.23; I 1.93; S 3.17; N 3.6; T 3.16; K 3.26; P 3.78; D 3.65; A 3.07; G 3.33; Y 2.57; R 2.48; C 2.82; W 2.57; H 3.08; L 3.23; F 2.1
V2: M 2.79; K 3.55; S 3.51; A 3.8; Q 3.56; H 3.03; Y 2.52; D 3.71; F 2.52; N 3.63; P 3.74; G 3.82; L 3.7; T 3.35; I 2.31; W 2.1; R 2.85; E 4.01; C 2.85
K4: I 1.88; P 4.01; V 2.55; S 3.15; R 2.7; W 2.43; A 3.07; Y 2.25; N 2.92; D 4.07; Q 3.17; C 2.6; E 3.55; M 2.34; F 2.13; H 2.88; G 3.5; L 2.49; T 3.25
F5: G 4.28; V 3.81; M 3.33; T 4; C 4.34; E 3.94; Y 3.46; H 3.24; A 3.66; I 2.94; R 3.63; P 4.07; L 2.98; D 3.75; N 3.14; K 3.55; W 2.47; S 4.46; Q 3.01
